According to IntAct's records for PubMed 19766572:

B1: Peroxiredoxin-1 (Gallus gallus (Chicken)), P0CB50 (parent)
chain: MSSGKAFIGKPAPDFTATAVMPDGQFKDIKLSDYRGKYVVFFFYPLDFTFVCPTEIIAYSDRADEFKKINCEIIGASVDSHFCHLAWINTPKKQGGLGTMKIPLVSDTKRVIAKDYGVLKEDEGIAYRGLFIIDEKGILRQITINDLPVGRSVDETLRLVQAFQFTDKHGEVCPAGWKPGSDTIKPDVQKSKEYFSKQK
partner: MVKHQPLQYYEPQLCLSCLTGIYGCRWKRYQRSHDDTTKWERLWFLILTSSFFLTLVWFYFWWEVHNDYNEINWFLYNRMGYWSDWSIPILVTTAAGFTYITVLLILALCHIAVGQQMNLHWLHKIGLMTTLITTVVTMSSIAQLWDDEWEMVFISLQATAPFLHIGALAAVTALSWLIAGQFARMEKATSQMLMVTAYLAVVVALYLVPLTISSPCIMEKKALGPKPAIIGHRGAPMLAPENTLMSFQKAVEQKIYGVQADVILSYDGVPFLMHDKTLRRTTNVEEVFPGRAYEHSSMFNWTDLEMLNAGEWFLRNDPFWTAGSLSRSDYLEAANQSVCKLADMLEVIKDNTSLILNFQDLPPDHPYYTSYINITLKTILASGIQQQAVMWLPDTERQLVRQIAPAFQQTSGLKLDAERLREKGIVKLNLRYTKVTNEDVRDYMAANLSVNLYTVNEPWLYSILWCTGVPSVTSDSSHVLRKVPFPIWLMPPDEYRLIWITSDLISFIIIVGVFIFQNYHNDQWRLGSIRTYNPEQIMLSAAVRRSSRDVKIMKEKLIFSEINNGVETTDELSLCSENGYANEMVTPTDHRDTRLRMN

Variants of: B1
Details: with gdpd5_chick GDPD5, Q3KTM2

effect of a mutation on the interaction	Variant
disrupting interaction	C52S;C173S
